Data from patent US20230181701A1.

Target: CD20 on Daudi cells (UniProt P11836)
Test: cell-based or functional assay

Chain of UniProt P11836 (P11836 whole entry): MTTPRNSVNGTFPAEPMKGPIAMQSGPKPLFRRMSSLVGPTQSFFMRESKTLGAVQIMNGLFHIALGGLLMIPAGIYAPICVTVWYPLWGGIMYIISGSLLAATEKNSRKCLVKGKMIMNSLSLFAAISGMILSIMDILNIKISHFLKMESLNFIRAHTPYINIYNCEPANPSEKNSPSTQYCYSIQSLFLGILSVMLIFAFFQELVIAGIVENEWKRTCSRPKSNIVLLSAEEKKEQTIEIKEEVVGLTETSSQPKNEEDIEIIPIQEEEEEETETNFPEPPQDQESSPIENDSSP

CDC of Daudi cells with baby rabbit serum (CCK8) (% of cells dead): 70
Substance: Anti-CD20 IgG (Rituximab, N7022, 10 mg/mL, Mabthera) (antibody)
